Test [1] concerns the target PG9.VHVL (human). Briefly: SPR; IgG captured as ligand by anti-human IgG (Human Antibody Capture Kit) on a GLC chip, ProteOn XPR36; trimer as analyte; 1x HBS-EP+ pH 7.4 with 1 mg/ml BSA; 1:1 binding model; highest SOSIP concentration 5 uM or 10 uM. In general terms: Surface plasmon resonance follows binding to a sensor surface in real time, without labels.
The target in test [2] is PG16.HCDR3 + 1MUT (human). Described as above.
Test [3] has as its target PCT64.iGL (human). The description is as above.
Test [4] deals with PG9.HCDR3.1MUT (human). The description is as above.
The target in test [5] is PG16.VHVL (human). The test is described as above.
Test [6] deals with PG9.iGL.1MUT (human). The description is as above.
The target in test [7] is PG9 (human). Described as above.
The target of test [8] is PG16 (human). The description is as above.
Test [9] concerns the target PG16.iGL (human). The description is as above.
Test [10] has as its target ApexGT2.2MUT trimer (HIV-1 isolate BG505). Briefly: cryo-EM structure.

In the case of BG505 SOSIP.D664 (complex), the Kd is 72 nM in test [1]; 273 nM in [2]; greater than 5000 nM in [3]; 317 nM in test [4]; 1000 nM in [5]; 645 nM in test [6]. Also, the values for the dissociation constant (Kd) in test [7], in test [8] and in test [9] were 15.8 nM, 38 nM and greater than 5000 nM, respectively.
Substance PCT64 LMCA Fab had a stoichiometry N (Fab per trimer) in test [10] of 1.

The term Kd denotes the constant that tells how readily two partners part at equilibrium.

These data come from paper PMC9671094.
